assay: soluble on expression in E. coli; label from the status in PepcDB or PDB records

Soluble on expression in E. coli, soluble:
MNTRTWFVLLCLALPLVSLQAQPHPQTEQTSPALSEHTEMDHTEMNHTEMDHTEMDHTEMDHTEMDHTQMDHTQMDHTQMDHAIHGATTQFAGDGSLPPPSAAALAAAFPPLRHRAAHAPPLVSLVRIDRLETWNADPGRGHAWATQAWIGSDIQRLWLRSQGECYGGRCQSVAVEMLYGHDISPWWDALIGARRDVQPDGRTWAALGVQGVAPYKFESAAFLYLSGAAMRLMVETKYDLLLSQRLILQPSLQATAGLTRDRDLGAGPQTLQVGIRMRYQITRRVAPYVGWEREYGYGESGRQARARGTSDHEKRWVAGIRCWFLEHHHHHH, MNTSEHEREHDHVIEVTDLRRVYGGDFEAVRGITFSVERGELFALLGTNGAGKTSTVELLEGLAAPSGGRVRVLGHDPYEERAAVRPRTGVMLQEGGFPSELTVAETVRMWAGCTSGARPVGEALSLVGLERRPDVRVKQLSGGERRRLDLALALLGRPEVLFLDEPTTGLDAEGRQETWELVRELRDGGTTVLLTTHYLEEAEGLADRLAILHEGRIATAGTPAEVTAAQPSRISFDLPDGYFLGDLPPLADLGVSTHETTGRTVRLRTHELQRTATALLLWAQRAQVELRGLDVRSASLEEAFLRIAREAAGDRPGRPGRTDVSGTTASGKEAVALEHHHHHH, MNVGDRVRVTSSVVVYHHPEHKKTAFDLQGMEGEVAAVLTEWQGRPISANLPVLVKFEQRFKAHFRPDEVTLIED, MNVLGRITAMPDLPEPLEGLKEIAYNLWWSWNPEAAELFQELDPALWKRFRGNPVKLLLELDPARLEALSASGYAARVQATREALRAYLEARRTKRGPLVAYFSAEYGFHSSLPIYAGGLGVLAGDHVKAASDLGLNLVGVGLFYHEGYFHQRLSPEGEQVEVYEPLRPEELPLVPVQDAEGRPVRVAVEFPGRLVHVGGYRVQVGAVPVYLLTTDLPENAPEDRQITARLYAAGLEARIQQELVLGLGGVRFLRALGLAPAFFHMNEGHSAFLGLERLRELVAEGYPFREALELARASALFTTHTPVPAGHDVFPLDLVDRYLGGFWEKLGVDRDTFLGLGLEEKPWGPVFSMSNLALRTAAQANGVSRLHGEVSRNMFRHLWPGLLAEEVPIGHVTNGVHTWTFLHPRLRRHYAEVFGPEWVERPEDPETWRVEGLGEAFWRIRQDLKLFLVREVRQRLYEQRRRNGEGPARLREAEKALDPEALTIGFARRFATYKRAVLLFKDPERLLRILKGPYPVQFVFAGKAHPKDEAGKAYLQELVSKIREYGLEDRMVVLEDYDMYLARVLTHGSDVWLNTPRRPMEASGTSGMKAALNGALNLSVLDGWWAEAYNGKNGFAIGDERVYESEEAQDVADAQALYDLLESEVIPLFYAKGLEGYSSGWMSMVHESLRTVGPYFSAGRMVRDYLALYERGALWEKEARARLEALKAFAEALSAFHALGVRPEVPGDLTLNGGRLEVGSVLEGEVPEGLRPHLRVQLVVRRLGGGLEVVDLEEVAPGRYRTAFRPTRPGSYTYGLRLALLHPVTGRVEWVRWA, MNYMELYDVDEFWKFQMKVGLVKKAEKIKRTKKLIKLIVDFGNEERTIVTGIADQIPPEELEGKKFIFVVNLKPKKFSGVESQGMLILAETEDGKVYLIPVPEEVPVGARVW

Soluble on expression in E. coli, not soluble:
MNVLKLTNGREISYLNEVEIRMGIDELNGEERYKKELENMETSDITVHKYEGGFKIWECTVDLCDYIEENQTLFAGKSVLELGCGAALPSILTAVHGAKEVFAQDFNASVIEFFTLPNFEENPHSAVVQGEAMGWEEVPNRLSGRKFDFILSSETIYNEDDYQALHDAVAATIKDDGVAWFAAKFFYFGVGGSVPAFCEFINQRGILQASEAKVIAASVPRRIVEIRKK, MNYLESEISALYASAHELCYLGMDGRPIYSDQFTRLNRDVFSQANALYDKRGNSHEEEARLCLSLLMGYNATLYNNGDKEERIQHILDRCWDVLEHLPASLLKVQLLVYCYGEVFDEELAREAQAIIDTWQDRKLSEEEREVVERLKDVQENPYPWSEVE, MNYRDLTLRERQVLGIIIQSYVVSAMPVGSRTIARNYNLGLSDATIRNVMADLEADGFISQPHTSAGRVPTDKGYRYYVDLIMNVSRIDEEEKRMIDDRFSNRNSELKGTSAEVLGTAARVLGSISRQLAVVLPPRLSNAVFERLDIVQLASSRIMVVIAIQSLFVKTIVMELNAEISRQKIDAVVDVLNERLPGLTLEEIRSTIAQRLSDFKGSEELMNSIVSSADTLFDESSILEQLYVSGTENIVDQPEFKQPEKVRDIITMIEDKFGMARLVDNAVPSALRQVSECEVAISIGTENRTGKAADLTIVSSPYFAGKMIGRVGVMGPKRMNYEHAVRVVNYMAGCLSEALSGNN
